Reference: paper PMC12560246, “Calorimetric characterization of the stability and activity of trimethylamine‐N‐oxide (TMAO) demethylase from Methylocella silvestris BL2” (Protein Science : A Publication of the Protein Society, 2025)
Several values for one entry are separate records, joined by “and”; a condition that tells them apart may be missing. Equal entries are not always repeated.

How the values were obtained:
[1] = target: trimethylamine-N-oxide demethylase (Tdm) from Methylocella silvestris BL2 (Methylocella silvestris BL2); assay: SEC; analytical SEC, HiLoad 16/600 Superdex 200 pg, 50 mM TRIS pH 7.9, 150 mM NaCl, 0.5 mL/min; column calibrated with globular proteins; 0.5 mL of concentrated IMAC fractions injected
[2] = substrate: C[N+](C)(C)[O-]; assay: isothermal titration calorimetry, multiple injection, Michaelis-Menten fit; format: biochemical, Methylocella silvestris; conditions: 50 mM KPi pH 7.0, 25 °C, 100 nM Tdm, multiple injections of 600 μM TMAO
From the text: isothermal titration calorimetry, multiple injection, Michaelis-Menten fit on Tdm (trimethylamine-N-oxide demethylase)

stoichiometry N [1]	Molecule	Km [2] [µM]	Vmax [2] [µmol/min]	kcat [2] [s⁻¹]
8 and 5	trimethylamine-N-oxide demethylase (Tdm) from Methylocella silvestris BL2 (enzyme)			
	Tdm (trimethylamine-N-oxide demethylase) (Methylocella silvestris BL2) (protein, GenBank version '.14' [sic]) MNVNAAAPKGSFDLDAPRRVQTLSAAGGGGVQFDLSAGDEAIITNLEGGQAGELLTASGEPLRLTPGSAPTDEAGVRAVAGDLAAAFLAARQGTERFLATPLFHAAAEPGETFRFKAEADMRCLLLAPGEPMAPDAQNPPTELRLDIFSSRPTGGAAPPSLAPVKLDLRVDAATARAYRVSAGDYIQIIDVDGRQCSDLVAFDARALAEGRELGVDPTVTRTLMGSATPGPGLHAKYFDQDMNPLFEIVRDTVGRHDTFMLACNAKYYDDMGYPGHANCTDNFNAALAPFGVAPRRGWPAINFFYNTFVAEDNTIGLDEPWSRPGDYVLLRALTDLVCASSSCADDIDPANGWMPTDIHVRVYDAAASFSKGIAHRMTADAAPRLTRESGFHSRTSALTRSFADYRGFWTPQCYASEGPIAEYWACRERAVLIDLSALRKFEITGPDAEILLQSAVTRNIRKLAVGQIVYTAICHEHGGMLDDGTVFRLGDNNFRLVCGEDYCGVFLRELAARQGLRAFVRSSTDQLHNVALQGPKSRDILREILVTPPHRASADELKWFRFTVGKIAGLPVLVSRTGYTGELGYEIWLHPGSAVAVWDALMAAGKPYGIAPFGFAALDMVRIEAGLIFAHHEFCDETDPFEAGIGFAVPAEKADPYVGSEALARRRASPIRRLAGLDVAGNEAVAHGDPVFAGRAQVGVVTSAMRSPVLGRTIALARLDAACASIGTDLEIGKLDGRQKRIAATVARFPHYDPEKARVRA	866 ± 72	18.5	15.48 ± 0.04
